# According to paper PMC4072508, “Genome-Wide Prediction and Validation of Peptides That Bind Human Prosurvival Bcl-2 Proteins” (PLoS Computational Biology, 2014):
# Biological target: Bcl-2, P10415
# Test: peptide SPOT array, c-Myc-tagged receptor at 1 uM or 100 nM, anti-c-Myc-Cy3
# Sequence of Bcl-2, P10415 (P10415 1-217): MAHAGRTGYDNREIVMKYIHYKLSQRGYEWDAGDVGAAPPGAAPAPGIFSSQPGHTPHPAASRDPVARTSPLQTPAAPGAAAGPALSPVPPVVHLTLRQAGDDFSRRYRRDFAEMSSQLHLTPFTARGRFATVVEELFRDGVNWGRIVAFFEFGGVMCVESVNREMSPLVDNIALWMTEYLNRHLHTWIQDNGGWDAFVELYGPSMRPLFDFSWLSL
row,Binder,SPOT signal as a fraction of Bim BH3's signal on the same receptor and array
1,VDVIDDHERGLIRNGRDFLLALERQG [DEDD],0.01
2,DLSSTFVSLALRKVGDWPLSARREKG [TTC31],0.2
3,GVAASDFIRSLDHCGDLALEGVFSHK [NLRC4],0.01
4,SQRGTDFSVLLSSAGDSFSQFRFAEE [AVEN],0.02
5,VIKQRRLPDQLSKLADRIQLSGRYYL [RAPGEF2],0.49
6,CLSCDLCGCRLGEVGRRLYYKLGRKL [LMO2],0.59
7,EQILAKIVELLKYSGDQLERKLKKDK [BCL2L14],0.49
8,FQQLRHRIQDLEQLAKEQDKESEKQL [BNIP1],0.02
9,ALNAQPSAEELSKIADSVNLPLDVVK [ZEB1],0.01
10,VFERCELARTLKRLGMDGYRGISLAN [LYZ],0.27
11,LNELYQRAKKLSKAGDNIPEEQPVAS [TMX2],0.02
12,NWFGDWSTEALYQVGKEFTSKMDLEK [DYNC1H1],0.02
13,HPKRKQVTELLLRKGANVNEKNKDFM,0.13
14,QLRLSDAGQYLCQAGDDSNSNKKNAD [PIGR],0.01
15,DISALTASNLLKKYAEKYSGILEGPV [FIGN],0.06
16,KGKIDVCIVLLQHGADPNIRNTDGKS,0.02
17,EGTKIVLGKQLIESADEVRRKSLVLK [TAF1],0.07
18,AYRGRGIAKHLAKAALDFVVEEDLKA [C17orf103],0.05
19,DAIIQMIVELLKRVGDQWEEEQSLAS [C6orf222],0.01
20,YTCRGHIPGFLQTTADEFCFYYARKD [HHIP],0.02

# Biological target: T1, Bcl-w, Q92843
# T1 chain: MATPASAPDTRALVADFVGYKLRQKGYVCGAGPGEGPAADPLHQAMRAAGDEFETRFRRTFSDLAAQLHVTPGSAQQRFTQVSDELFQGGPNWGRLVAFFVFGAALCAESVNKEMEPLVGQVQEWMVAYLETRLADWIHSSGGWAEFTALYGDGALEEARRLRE
# Test: as above
row,Binder,SPOT signal as a fraction of Bim BH3's signal on the same receptor and array
1,VDVIDDHERGLIRNGRDFLLALERQG [DEDD],0.02
2,DLSSTFVSLALRKVGDWPLSARREKG [TTC31],1.09
3,GVAASDFIRSLDHCGDLALEGVFSHK [NLRC4],0.02
4,SQRGTDFSVLLSSAGDSFSQFRFAEE [AVEN],0.07
5,VIKQRRLPDQLSKLADRIQLSGRYYL [RAPGEF2],1.08
6,CLSCDLCGCRLGEVGRRLYYKLGRKL [LMO2],1.8
7,EQILAKIVELLKYSGDQLERKLKKDK [BCL2L14],0.74
8,FQQLRHRIQDLEQLAKEQDKESEKQL [BNIP1],0.04
9,ALNAQPSAEELSKIADSVNLPLDVVK [ZEB1],0.01
10,VFERCELARTLKRLGMDGYRGISLAN [LYZ],0.69
11,LNELYQRAKKLSKAGDNIPEEQPVAS [TMX2],0.07
12,NWFGDWSTEALYQVGKEFTSKMDLEK [DYNC1H1],0.03
13,HPKRKQVTELLLRKGANVNEKNKDFM,0.5
14,QLRLSDAGQYLCQAGDDSNSNKKNAD [PIGR],0.02
15,DISALTASNLLKKYAEKYSGILEGPV [FIGN],0.13
16,KGKIDVCIVLLQHGADPNIRNTDGKS,0.03
17,EGTKIVLGKQLIESADEVRRKSLVLK [TAF1],0.48
18,AYRGRGIAKHLAKAALDFVVEEDLKA [C17orf103],0.29
19,DAIIQMIVELLKRVGDQWEEEQSLAS [C6orf222],0.33
20,YTCRGHIPGFLQTTADEFCFYYARKD [HHIP],0.1

# Biological target: Bcl-xL, Q07817
# Sequence (Q07817 1-209): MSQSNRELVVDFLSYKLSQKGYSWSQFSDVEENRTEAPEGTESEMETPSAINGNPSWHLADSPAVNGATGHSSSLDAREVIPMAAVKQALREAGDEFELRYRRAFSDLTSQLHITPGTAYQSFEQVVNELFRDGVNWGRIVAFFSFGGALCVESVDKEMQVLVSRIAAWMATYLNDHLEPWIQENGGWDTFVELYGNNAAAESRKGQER
# Test: as above
row,Binder,SPOT signal as a fraction of Bim BH3's signal on the same receptor and array
1,VDVIDDHERGLIRNGRDFLLALERQG [DEDD],0.03
2,DLSSTFVSLALRKVGDWPLSARREKG [TTC31],0.29
3,GVAASDFIRSLDHCGDLALEGVFSHK [NLRC4],0.02
4,SQRGTDFSVLLSSAGDSFSQFRFAEE [AVEN],0.16
5,VIKQRRLPDQLSKLADRIQLSGRYYL [RAPGEF2],1.08
6,CLSCDLCGCRLGEVGRRLYYKLGRKL [LMO2],1.18
7,ALNAQPSAEELSKIADSVNLPLDVVK [ZEB1],0.02
8,VFERCELARTLKRLGMDGYRGISLAN [LYZ],0.65
9,LNELYQRAKKLSKAGDNIPEEQPVAS [TMX2],0.13
10,NWFGDWSTEALYQVGKEFTSKMDLEK [DYNC1H1],0.04
11,QLRLSDAGQYLCQAGDDSNSNKKNAD [PIGR],0.03
12,DISALTASNLLKKYAEKYSGILEGPV [FIGN],0.1
13,AYRGRGIAKHLAKAALDFVVEEDLKA [C17orf103],0.36
14,DAIIQMIVELLKRVGDQWEEEQSLAS [C6orf222],0.16
15,YTCRGHIPGFLQTTADEFCFYYARKD [HHIP],0.07

# Biological target: T2, Bfl-1, Q16548
# T2 chain: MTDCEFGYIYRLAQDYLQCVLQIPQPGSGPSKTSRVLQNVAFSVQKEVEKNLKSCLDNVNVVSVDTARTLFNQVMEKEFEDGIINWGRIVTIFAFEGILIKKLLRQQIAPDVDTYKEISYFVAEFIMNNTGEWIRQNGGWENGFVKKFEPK
# Test: as above
row,Binder,SPOT signal as a fraction of Bim BH3's signal on the same receptor and array
1,VDVIDDHERGLIRNGRDFLLALERQG [DEDD],0.02
2,DLSSTFVSLALRKVGDWPLSARREKG [TTC31],0.75
3,GVAASDFIRSLDHCGDLALEGVFSHK [NLRC4],0.01
4,SQRGTDFSVLLSSAGDSFSQFRFAEE [AVEN],0.03
5,VIKQRRLPDQLSKLADRIQLSGRYYL [RAPGEF2],0.91
6,CLSCDLCGCRLGEVGRRLYYKLGRKL [LMO2],1.61
7,EQILAKIVELLKYSGDQLERKLKKDK [BCL2L14],0.75
8,FQQLRHRIQDLEQLAKEQDKESEKQL [BNIP1],0.08
9,ALNAQPSAEELSKIADSVNLPLDVVK [ZEB1],0.01
10,VFERCELARTLKRLGMDGYRGISLAN [LYZ],0.74
11,LNELYQRAKKLSKAGDNIPEEQPVAS [TMX2],0.07
12,NWFGDWSTEALYQVGKEFTSKMDLEK [DYNC1H1],0.03
13,HPKRKQVTELLLRKGANVNEKNKDFM,0.48
14,QLRLSDAGQYLCQAGDDSNSNKKNAD [PIGR],0.03
15,DISALTASNLLKKYAEKYSGILEGPV [FIGN],0.33
16,KGKIDVCIVLLQHGADPNIRNTDGKS,0.1
17,EGTKIVLGKQLIESADEVRRKSLVLK [TAF1],0.34
18,AYRGRGIAKHLAKAALDFVVEEDLKA [C17orf103],0.11
19,DAIIQMIVELLKRVGDQWEEEQSLAS [C6orf222],0.06
20,YTCRGHIPGFLQTTADEFCFYYARKD [HHIP],0.06

# Biological target: T3, Mcl-1, Q07820
# T3 chain: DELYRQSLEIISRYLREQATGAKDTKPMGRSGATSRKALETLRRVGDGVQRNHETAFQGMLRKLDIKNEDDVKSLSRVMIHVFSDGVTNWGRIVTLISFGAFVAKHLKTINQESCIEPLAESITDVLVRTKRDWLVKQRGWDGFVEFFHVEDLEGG
# Test: as above
row,Binder,SPOT signal as a fraction of Bim BH3's signal on the same receptor and array
1,VDVIDDHERGLIRNGRDFLLALERQG [DEDD],0.04
2,DLSSTFVSLALRKVGDWPLSARREKG [TTC31],0.47
3,GVAASDFIRSLDHCGDLALEGVFSHK [NLRC4],0.02
4,SQRGTDFSVLLSSAGDSFSQFRFAEE [AVEN],0.06
5,VIKQRRLPDQLSKLADRIQLSGRYYL [RAPGEF2],0.69
6,CLSCDLCGCRLGEVGRRLYYKLGRKL [LMO2],0.86
7,ALNAQPSAEELSKIADSVNLPLDVVK [ZEB1],0.02
8,VFERCELARTLKRLGMDGYRGISLAN [LYZ],0.38
9,LNELYQRAKKLSKAGDNIPEEQPVAS [TMX2],0.05
10,NWFGDWSTEALYQVGKEFTSKMDLEK [DYNC1H1],0.03
11,QLRLSDAGQYLCQAGDDSNSNKKNAD [PIGR],0.02
12,DISALTASNLLKKYAEKYSGILEGPV [FIGN],0.13
13,AYRGRGIAKHLAKAALDFVVEEDLKA [C17orf103],0.07
14,DAIIQMIVELLKRVGDQWEEEQSLAS [C6orf222],0.09
15,YTCRGHIPGFLQTTADEFCFYYARKD [HHIP],0.04
